# T1: P66 (rabbit ANGPTL7-his) (rabbit, UniProt G1T4P1 27-344)
# T1 construct: mature; also called rabbit ANGPTL7 protein
# T1 sequence: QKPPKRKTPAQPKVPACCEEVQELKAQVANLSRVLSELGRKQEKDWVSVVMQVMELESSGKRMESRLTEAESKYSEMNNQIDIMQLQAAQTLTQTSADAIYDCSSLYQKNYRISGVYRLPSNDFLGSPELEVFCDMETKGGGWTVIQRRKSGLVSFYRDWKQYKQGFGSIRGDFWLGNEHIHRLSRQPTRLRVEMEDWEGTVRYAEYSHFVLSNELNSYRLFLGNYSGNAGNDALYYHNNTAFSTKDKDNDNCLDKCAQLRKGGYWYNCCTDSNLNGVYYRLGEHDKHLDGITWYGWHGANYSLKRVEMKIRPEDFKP
# T2: muANGPTL7-his (R&D Systems) (mouse, UniProt Q8R1Q3 22-337, limits assumed)
# T2 construct: Bought protein; also called mouse ANGPTL7 protein
# T2 sequence (looked up): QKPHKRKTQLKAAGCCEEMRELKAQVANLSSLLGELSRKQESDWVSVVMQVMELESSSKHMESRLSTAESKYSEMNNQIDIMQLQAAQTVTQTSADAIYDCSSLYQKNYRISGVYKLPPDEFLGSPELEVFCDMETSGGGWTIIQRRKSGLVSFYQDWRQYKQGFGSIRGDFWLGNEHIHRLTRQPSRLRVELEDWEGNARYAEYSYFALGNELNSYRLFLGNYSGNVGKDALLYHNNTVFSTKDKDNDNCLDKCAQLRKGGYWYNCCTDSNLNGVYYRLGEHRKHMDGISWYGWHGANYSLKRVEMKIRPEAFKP
# T3: P60 (huANGPTL7-Fibrinogen-his) (human, UniProt O43827 129-343)
# T3 construct: also called human ANGPTL7 fibrinogen domain; not shown: C-terminal short linker and His tag
# T3 sequence: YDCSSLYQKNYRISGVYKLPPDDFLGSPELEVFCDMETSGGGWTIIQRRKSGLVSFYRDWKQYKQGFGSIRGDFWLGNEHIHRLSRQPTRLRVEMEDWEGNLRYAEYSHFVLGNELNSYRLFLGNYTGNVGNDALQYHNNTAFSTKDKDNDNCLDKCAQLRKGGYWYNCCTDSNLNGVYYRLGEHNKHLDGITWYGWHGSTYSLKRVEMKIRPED
# T4: P62 (huANGPTL7-his) (human, UniProt O43827 27-346)
# T4 construct: not shown: C-terminal short linker and His tag
# T4 chain: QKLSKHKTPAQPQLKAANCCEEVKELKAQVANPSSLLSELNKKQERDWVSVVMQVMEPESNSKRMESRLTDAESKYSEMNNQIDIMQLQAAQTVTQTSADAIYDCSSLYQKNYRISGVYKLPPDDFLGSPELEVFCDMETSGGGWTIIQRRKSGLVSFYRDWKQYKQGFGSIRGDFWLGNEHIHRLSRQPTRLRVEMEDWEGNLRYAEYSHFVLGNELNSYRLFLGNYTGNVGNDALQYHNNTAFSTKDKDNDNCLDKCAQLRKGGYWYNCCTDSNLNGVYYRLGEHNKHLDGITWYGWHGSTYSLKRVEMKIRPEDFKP
# B1: ATX-P-437 (antibody, human IgG1, kappa, N297A, V domains shown)
# VH: QITLKESGPTLVKPTQTLTLTCTFSGFSLSTSGVGVGWIRQPPGKALEWLALIYWNDDKQYSPSLKSRLTITKDTSKNQVVLTMTNMDPMDTATYYCAHNPDYGDFFDYWGQGTLVTVSS
# VL: not shown
# notes: Full chains (VH + hIgG1-Agly-Fc)
# How the values were obtained:
# P66 (rabbit ANGPTL7-his) = biological target: T1, P66 (rabbit ANGPTL7-his); assay: BLI Octet HTX; IgG on AHC sensor; P66 at 200 nM; 1:1 fit
# Procedure: (§1) Experiments were also conducted to determine the reactivity and dissociation constants (KA) of anti-ANGPTL7 antibodies with the rabbit ANGPTL7 protein. Binding experiments were performed on Octet HTX (ForteBio) in Rx PBS, pH 7.4, 0.1 mg/mi BSA, 0.05% Sodium Azide, and 0.02% Tween 20. Antibodies at a concentration of 50 nM were loaded on pre-hydrated AHC biosensors for 5 min. The loaded sensors were dipped into monovalent P66 (rabbit ANGPTL7-his) at a concentration of 200 nM for 5 min of association, followed by 10 min of dissociation. […] Responses (nm) at the end of association were also determined (Table 6).
# [1] = biological target: T2, muANGPTL7-his (R&D Systems); assay: BLI Octet HTX; IgG on AHC sensor; muANGPTL7-his at 200 nM
# Procedure: as §1, with “(KD)” for “(KA)”, “mouse” for “rabbit”, “1×PBS,” for “Rx PBS,”, “[…].” for “min.”, “muANGPTL7-his (R&D Systems)” for “P66 (rabbit ANGPTL7-his)”, “5).” for “6).”
# [2] = biological target: T3, P60 (huANGPTL7-Fibrinogen-his); assay: BLI Octet HTX; IgG on AHC sensor; P60 at 200 nM; 1:1 fit
# Procedure: ANGPTL7 Antibody Kinetics. Experiments were conducted to determine the reactivity and dissociation constants (KD) of anti-ANGPTL7 antibodies with the human fibrinogen domain of the ANGPTL7 protein. Binding experiments were performed on Octet HTX (ForteBio) in 1×PBS, pH 7.4, 0.1 mg/ml BSA, 0.05% Sodium Azide, and 0.02 Tween 20. Antibodies at a concentration of 50 nM were loaded on pre-hydrated AHC biosensors for 5 min. The loaded sensors were dipped into monovalent P60 (huANGPTL7-Fibrinogen-his) at a concentration of 200 nM for 5 min association, followed by 10 min dissociation. […] Responses (nm) at the end of association were also determined (Table 2).
# [3] = biological target: T2, muANGPTL7-his (R&D Systems); assay: BLI Octet HTX; IgG on AHC sensor; muANGPTL7-his at 200 nM; 1:1 fit
# Procedure: as §1, with “(KD)” for “(KA)”, “mouse” for “rabbit”, “1×PBS,” for “Rx PBS,”, “[…].” for “min.”, “muANGPTL7-his (R&D Systems)” for “P66 (rabbit ANGPTL7-his)”, “5).” for “6).”
# P62 (huANGPTL7-his) = biological target: T4, P62 (huANGPTL7-his); assay: BLI Octet HTX; IgG on AHC sensor; P62 0.343-250 nM; global 1:1 fit (token printed under the kon column)
# Procedure: Experiments were also conducted to determine the reactivity and dissociation constants (KD) of anti-ANGPTL7 antibodies with the human ANGPTL7-his protein. Binding experiments were performed on Octet HTX (ForteBio) in 1×PBS, pH 7.4, 0.1 mg/mi BSA, 0.05% Sodium Azide, and 0.02% Tween 20. To measure monovalent binding kinetics, antibodies at a concentration of 50 nM were loaded on pre-hydrated AHC biosensors for 5 min. The loaded sensors were dipped into monovalent P62 (huANGPTL7-his) at a range of concentration from 0.343-250 nM (a serial 3-fold dilution) for 5 min association, followed by 10 min dissociation.
binder,measurement,setting,value
B1,Kd,P66 (rabbit ANGPTL7-his),0.786 nM
same,Response,P66 (rabbit ANGPTL7-his),0.8 nm
same,binding result,[1],no binding (tested: 200 nM)
same,Kd,[2],0.658 nM
same,Response,[2],0.6 nm
same,Response,[3],0.02 nm
same,binding result,P62 (huANGPTL7-his),binds
